The target of experiment [1] is SARS-CoV-2 (2019-nCoV) Spike RBD-mFc Recombinant Protein (SARS-CoV-2; mouse) (UniProt P0DTC2). The experiment is described as follows: time course 0 to 16 h at 37 °C, Western blot. Background: Immunoblotting shows a protein as a band on a membrane.
Experiment [2] has as its target Spike protein on SARS-CoV-2 GFP Reporter Virus Particles (pseudotyped lentivirus), wild-type strain (SARS-CoV-2) (UniProt P0DTC2). The experiment is described as follows: cell-based or functional assay.
Experiment [3] has as its target Spike protein on authentic SARS-CoV-2 Nanoluciferase virus (USA/WA1-2020) (SARS-CoV-2) (UniProt P0DTC2). As to the kind of experiment: cell-based or functional assay.

On to “ACE2-34FSY (soluble human ACE2, amino acids 1 to 740, FSY at H34, C-terminal His x6) (from UniProt Q9BYF1 18-740) (receptor)”, for which the apparent second-order rate constant of covalent crosslinking in experiment [1] turned out to be 123 M⁻¹ s⁻¹. As for “mNb6 dimer with one FFY at position 108 of the N-terminal mNb6 (VHH)”, the IC50, neutralizing pseudovirus in experiment [2] amounted to 1.9 nM. In experiment [3], the IC50, neutralizing authentic SARS-CoV-2 virus turned out to be 0.28 nM.

The values are drawn from patent US20240262791A1, “B[…] […] AMINO ACIDS” (priority 2021, published 2024).
